Experimental data: patent publication CN101696242A

Target: CVS-11
Assay: cell-based or functional assay

B1: 人源抗狂犬病毒中和抗体Fab (Fab, V domains shown)
VH: ELLESGGGLVQPGGSLRLSCAASGFTFSSYAMSWVRQAPGKGLEWVSSINRSGDITTYADSVKGRFTISRDNSKNTLYLQMNSLRAEDTAVYYCAKKTRRFDYWGQGTLVTVSS
VL: ESALTQPRSVSGSPGQSVTISCTGTSSDIGGYNFVSWYQQHPGKAPKLMIYDATKRPSGVPDRFSGSKSGNTASLTISGLQAEDEADYYCCSYAGDYTPGVVFGGGTKLTVLG
  中和效价 (狂犬病荧光抗体病毒中和试验 FAVN, BHK-21细胞): 10.3 IU/mL
